{"source": "paper doi:10.64898/2025.12.08.692925", "binders": {"B1": {"name": "Sfc1 fused to long YFP (natural protein)", "chain": "MSQKKKASHPAINLMAGGTAGLFEALCCHPLDTIKVRMQIYRRVAGIEHVKPPGFIKTGRTIYQKEGFLALYKGLGAVVIGIIPKMAIRFSSYEFYRTLLVNKESGIVSTGNTFVAGVGAGITEAVLVVNPMEVVKIRLQAQHLTPSEPNAGPKYNNAIHAAYTIVKEEGVSALYRGVSLTAARQATNQGANFTVYSKLKEFLQNYHQMDVLPSWETSCIGLISGAIGPFSNAPLDTIKTRLQKDKSISLEKQSGMKKIITIGAQLLKEEGFRALYKGITPRVMRVAPGQAVTFTVYEYVREHLENLGIFKKNDTPKPKPLK"}}, "assay_in_all_cases": "split reporter", "key": {"[1]": {"biological_target": "Tim23 mutant M1 fused to short YFP (S. cerevisiae) (UniProt P32897)"}, "[2]": {"biological_target": "Tim23 mutant M2 fused to short YFP (S. cerevisiae) (UniProt P32897)"}, "[3]": {"biological_target": "Tim23 mutant M4 fused to short YFP (S. cerevisiae) (UniProt P32897)"}}}
{"binder": "B1", "values": [{"measurement": "percent of fluorescent cells", "setting": "[1]", "result": 4, "unit": "%"}, {"measurement": "percent of fluorescent cells", "setting": "[2]", "result": 7, "unit": "%"}, {"measurement": "percent of fluorescent cells", "setting": "[3]", "result": 9, "unit": "%"}]}
